Consider one substance from publication PMC9207415.

This series can be described thus: SEC; TSK gel G3000SWXL, 100 mmol/L sodium phosphate with 100 mmol/L Na2SO4 (pH 6.8), isocratic, 0.4 ml/min, 25°C, UV at 280 nm; area percentages of monomer, oligomeric and truncated forms of the antibody solution (5 g/L in 10 mmol/L potassium phosphate pH 7.0). In general terms: In gel filtration, larger molecules generally elute earlier.

Turning to “NMIJ RM 6208a, AIST-MAB (humanized IgG1κ monoclonal antibody reference material)”, the “area percentage of the monomer peak” value is listed as “(93.7 ± 0.2) %”.
